Assay results published in patent publication US20190218296A1 (APEXIGEN, published 2019).
Numbering of substitutions follows the chain as printed.

Tests used:
recombinant human PD-L1 [1] = target: T1, recombinant human PD-L1 (human, UniProt Q9NZQ7 19-238, limits assumed); experiment: ELISA on human PD-L1, OD 650 nm
T1 construct: also called PD-L1 protein

human PD-L1 on cells [2] = target: T2, human PD-L1 on cells (human, UniProt Q9NZQ7 19-290); experiment: flow cytometry on HEK PD-L1 cells, MFI
T2 construct: whole, on cells; also called HEK-PD-L1 cells; PD-L1-expressing HEK 293 cells

human PD-L1 on cells [3] = target: T2, human PD-L1 on cells; experiment: flow cytometry on activated CD4 T cells, MFI
human PD-L1 on cells [4] = target: T2, human PD-L1 on cells; experiment: flow cytometry on HEK-PD-L1 cells; PE anti-human Fc, MFI
human PD-L1 on cells [5] = target: T2, human PD-L1 on cells; experiment: flow cytometry on monocyte-derived dendritic cells, MFI
human PD-L1 on cells [6] = target: T2, human PD-L1 on cells; experiment: flow cytometry on HEK PD-L1 cells, saturation fit on a linear axis
human PD-L1 on cells [7] = target: T2, human PD-L1 on cells; experiment: flow cytometry on activated CD4 T cells, saturation fit on a linear axis
human PD-L1 on cells [8] = target: T2, human PD-L1 on cells; experiment: flow cytometry on monocyte-derived dendritic cells, saturation fit on a linear axis
human PD-L1 on cells [9] = target: T2, human PD-L1 on cells; experiment: flow cytometry on HEK-PD-L1 cells, saturation fit on a linear axis; column head prints only Kd, unit taken from the axis Ab (nM)
[10] = target: T3, human PD-L1-his (Sino Biologics) (human, UniProt Q9NZQ7 19-238); experiment: competition ELISA: human PD-L1-his coated at 1 µg/ml, antibody dilutions, then human PD-1-mouse-Fc at 1 µg/ml, anti-mouse IgG-HRP, OD 650 nm
T3 construct: Bought from Sino Biologics; not shown: his tag
Procedure: Plates were coated with 100 μl of 1 μg/ml human PD-L1-his (Sino Biologics, Beijing, China) in carbonate-bicarbonate buffer overnight. After washing, plates were blocked with PBS 0.05% Tween-20 for 1 hour, and serial dilutions of anti-PD-L1 human chimeric antibody or IgG1 isotype control antibody was added. […] After washing, goat anti-mouse IgG (H+L)-HRP antibody (Jackson ImmunoResearch West Grove, Pa.) and plates were further incubated for 1 hour. After washing, TMB substrate (SurModics, Eden Prairie, Minn.) was added. The reaction was stopped using stop solution (SurModics) and plates were read at OD=650 nanometer.

human PD-L1 on cells [11] = target: T2, human PD-L1 on cells; experiment: flow cytometry on monocyte-derived dendritic cells; PE anti-human Fc, MFI
Procedure: The chimeric PD-L1 antibodies were further assessed for their ability to bind to human myeloid-derived dendritic cells. CD14 monocytes were isolated from PBMC using directly conjugated magnetic beads (Miltenyi) and cultured for 7 days in the presence of GM-CSF (100 ng/ml) and IL-4 (50 ng/ml) (Peprotech) to generate myeloid dendritic cells (mDC). mDC were added to 96-well plates (100,000 cells/well) and serial dilution of anti-PD-L1 antibodies or IgG1 isotype control antibody was added in duplicates and plates were incubated for 30 min on ice. After washing, a PE-conjugated donkey anti-human Fc specific antibody (Jackson Immunoresearch, 1:200 dilution) was added and plates were further incubated for 15 minutes on ice. After washing, cells were analyzed using a MACS quant flow cytometer.

human PD-L1 on cells [12] = target: T2, human PD-L1 on cells; experiment: flow cytometry on human PD-L1 transfected HEK 293 cells; PE anti-human Fc, MFI
Procedure: Stable human PD-L1 transfected HEK 293 cells (Crown Bio, San Diego, Calif.) were added to 96-well plates (100,000 cells/well) and serial dilution of anti-PD-L1 antibodies or IgG1 isotype control antibody was added in duplicates and plates were incubated for 30 minutes on ice. After washing, a PE-conjugated donkey anti-human Fc specific antibody (Jackson Immunoresearch, West Grove, Pa. 1:200 dilution) was added and plates were further incubated for 15 minutes on ice. After washing, cells were analyzed using a MACS quant flow cytometer.

recombinant human PD-L1 [13] = target: T1, recombinant human PD-L1; experiment: direct ELISA on plate-coated recombinant human PD-L1; anti-human Fc-HRP, TMB, OD 650 nm
Procedure: (§1) To assess specificity of the selected clones, a direct ELISA for human and cynomolgus monkey PD-L1 was performed. ELISA plates were coated with recombinant human or cynomolgus monkey PD-L1. […] Serial dilutions of chimeric anti-PD-L1 antibodies were added, and a secondary HRP-conjugated, anti-human Fc-specific antibody was added. After washing, TMB substrate was added and plates were read at OD 650 nm.

[14] = target: T4, recombinant cynomolgus monkey PD-L1 (cynomolgus monkey, UniProt G7PSE7 19-238); experiment: direct ELISA on plate-coated recombinant cynomolgus monkey PD-L1; anti-human Fc-HRP, TMB, OD 650 nm
T4 construct: also called cynomolgus macaque PD-L1
Procedure: as §1

human PD-L1 on cells [15] = target: T2, human PD-L1 on cells; experiment: flow cytometry on CD4 T cells activated with anti-CD3; MFI; column head prints only EC50, unit taken from the axis Antibody Concentration (nM)
recombinant human PD-L1 [16] = target: T1, recombinant human PD-L1; experiment: competition ELISA: PD-L1 coated, serial dilutions of the antibody, then biotinylated Atezolizumab at 1 µg/ml, streptavidin-HRP, OD 650 nm

T4 sequence (G7PSE7 entry or part of it limits assumed): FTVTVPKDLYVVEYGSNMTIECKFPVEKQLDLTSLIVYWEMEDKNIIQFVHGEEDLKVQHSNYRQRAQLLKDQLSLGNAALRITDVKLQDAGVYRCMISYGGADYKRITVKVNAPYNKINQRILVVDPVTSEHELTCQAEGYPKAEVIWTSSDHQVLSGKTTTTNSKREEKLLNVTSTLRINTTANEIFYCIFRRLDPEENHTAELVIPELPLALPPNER
T2 sequence (Q9NZQ7 19-290): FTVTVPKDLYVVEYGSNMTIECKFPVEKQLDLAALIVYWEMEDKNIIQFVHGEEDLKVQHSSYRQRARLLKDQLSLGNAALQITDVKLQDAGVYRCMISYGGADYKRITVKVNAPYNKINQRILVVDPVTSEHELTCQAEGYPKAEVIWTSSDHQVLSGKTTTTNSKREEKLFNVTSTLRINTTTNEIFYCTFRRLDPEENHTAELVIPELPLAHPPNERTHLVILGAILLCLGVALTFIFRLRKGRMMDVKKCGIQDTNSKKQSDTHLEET
T1 sequence (Q9NZQ7 19-238 limits assumed): as the sequence (G7PSE7 entry or part of it limits assumed) above, with T33A, S34A, N62S, Q68R, R82Q, L173F, A185T, I192T, L215H counted along it
T3 sequence (Q9NZQ7 19-238 limits assumed): as the sequence (G7PSE7 entry or part of it limits assumed) above, with T33A, S34A, N62S, Q68R, R82Q, L173F, A185T, I192T, L215H counted along it

B1: chimeric anti-PD-L1 antibody 51D5 (antibody, human IgG1, V domains shown)
VH: QSVEESGGRLVTPGTPLTLTCIVSGFSLSSYWMSWVRRAPGKGLEWIGYINGGSGNPYYASWAKGRFTISKTSTTVDLKITSPTTEDTATYFCARGGESDDYVYGRYGLDPWGPGTLVTVSS
VL: AYDMTQTPASVSEPVGGTVTIKCQASQSISSWLSWYQQKPGQPPKLLIYDASKLASGVPSRFSGSGSGTQFTLTISDLECDDAATYYCQQDYSSYNVDNTFGGGTEVVVK
notes: also called chimeric 51D5; c51D5
Binder B1 has an EC50 (recombinant human PD-L1 [1]) of 0.0117 µg/mL, an EC50 (human PD-L1 on cells [2]) of 0.32 nM and an EC50 (human PD-L1 on cells [3]) of 1.03 nM. The “EC50 (read off the curve)” value (human PD-L1 on cells [4]) was about 1 nM, the EC50 (human PD-L1 on cells [5]) was 1.12 nM and the Kd (human PD-L1 on cells [6]) was 0.16 nM. It also gave a Kd (human PD-L1 on cells [7]) of 0.025 nM, a Kd (human PD-L1 on cells [8]) of 0.5 nM and a Kd (human PD-L1 on cells [9]) of 0.91 nM. The “IC50 (read off the curve)” value [10] was about 0.2 µg/mL.

B2: chimeric anti-PD-L1 antibody 15E9 (antibody, human IgG1, V domains shown)
VH: QSVEESGGRLVTPGTPLTLTCTVSGFDISNYWMSWVRQAPGKGLEYIGIISTGGNTWYASWVKGRFTISKTSTTVDLKMTSLTTEDTATYFCVRVVIYGGTTSSFNLWGPGTLVTVSS
VL: QVLTQTASPVSAAVGGTVTINCQSSQNVYNKIRLSWFQQKSGQPPKELIYAASSLASGVPSRFKGSGSGTEFTLTISDLECDDAATYYCQGGYSGPIYAFGGGTEVVVK
B2 was tested, and the EC50 (recombinant human PD-L1 [1]) was 0.0138 µg/mL, the EC50 (human PD-L1 on cells [3]) was 0.756 nM and the EC50 (human PD-L1 on cells [5]) was 0.9 nM. It also gave an EC50 (human PD-L1 on cells [11]) of 1.1 nM, a Kd (human PD-L1 on cells [7]) of 0.026 nM and an EC50 (human PD-L1 on cells [12]) of 0.58 nM. For the same binder, the Kd (human PD-L1 on cells [8]) was 0.42 nM, the “EC50 (read off the curve)” value (recombinant human PD-L1 [13]) was about 4 ng/mL and the binding result [14] was “no binding (tested: 1000 ng/ml)”.

B3: chimeric anti-PD-L1 antibody 43G2 (antibody, human IgG1, V domains shown)
VH: QSVEESGGRLVTPGTPLTLTCTVSGFSLSSYAMGWVRQAPGEGLEYIGFIDTHGSAYYATWAKGRFTISRTSTTVDLKITSPTTEDTATYFCARNVWTNAGYFNLWGPGTLVTVSS
VL: DVVMTQTPSSVSAAVGGTVTIKCQASQNIYTNLAWYQQKPGQPPKLLIYSASTLASGVPSRFKGSGSGTQFTLTISDLECADAATYYCQTYGALIINGGAFGGGTEVVVK
For B3, the EC50 (human PD-L1 on cells [11]) was 1.6 nM, the “EC50 (read off the curve)” value (recombinant human PD-L1 [13]) was about 6 ng/mL and the “EC50 (read off the curve)” value [14] was about 5 ng/mL. The EC50 (human PD-L1 on cells [15]) was 7.7 nM.

B4: chimeric anti-PD-L1 antibody 23D12 (antibody, human IgG1, V domains shown)
VH: QSVEESGGRLVTPGTPLTLTCTVSGFSLSNYVMGWVRQAPGKGLEYIGIISNSDNTYYATWATGRFTISKTSTTVDLKMTSLTTEDTATYFCARVDTYYNDFNLWGPGTLVTVSS
VL: QVLTQTPSSVEAAVGGTVTIKCQASEDIERYLAWYQQKPGQPPKQLIYDASKLASGVSSRFKGSGSGTEFTLTISGVQCDDAATYYCQHGYIYSSGNPFGGGTEVVVK
In the case of B4, the EC50 (human PD-L1 on cells [11]) is reported as 1.7 nM, the “EC50 (read off the curve)” value (recombinant human PD-L1 [13]) is reported as about 7 ng/mL and the “EC50 (read off the curve)” value [14] is reported as about 6 ng/mL. It also gave an EC50 (human PD-L1 on cells [15]) of 1.3 nM.

B5: chimeric anti-PD-L1 antibody 11B11 (antibody, human IgG1, V domains shown)
VH: QSVEESGGRLVTPGGTLTLTCTASGFSLSNYTMAWVRQAAGKGLEWIGYINTGGSPYYASWAKGRFTISRSSTTVDLKMTSLTTEDTATYFCARNVDGAWNYLNLWGPGTLVTVSS
VL: AYDMTQTPASVEVVVGGTVTIKCQASETINTYLSWYQQKPGQRPRLLIYAASNLASGVPSRFSGSGSGTEFTLTISGVQCADAATYYCQQGINSNVGNTFGGGTEVVVK
B5: binds (recombinant human PD-L1 [16]).

B6: chimeric anti-PD-L1 antibody 27H2 (antibody, human IgG1, V domains shown)
VH: QSLEESGGDLVKPGASLTLTCTASGFSFSSGDYMCWVRQAPGKGLEGIACIYGGSSGSTYYANWAKGRFTISKTSSTTVTLQMTSLAAADTATYFCARDFRDVGYGYASFRLWGPGILVTVSS
VL: DIVMTQTPASVSEPVGGTVTIKCQASQSISSWLSWYQQKPGQPPKLLIYGASNLESGVSSRFKGSGSGTEYTLTISDLECADAATYYCQSNYGSSSSSLNAFGGGTEVVVK
With B6 the binding result [14] was “no binding (tested: 1000 ng/ml)”, the “IC50 (read off the curve)” value [10] was about 0.02 µg/mL and the EC50 (human PD-L1 on cells [15]) was 0.75 nM.

B7: h9A9-HZD1 (antibody, V domains shown)
VH: EVQLVESGGGLVQPGGSLRLSCAASGIDLSGYWMSWVRQAPGKGLEWVGIVDNDGSAYYASWVNGRFTISRDNSKNTLYLQMNSLRAEDTAVYYCARQSGDWTFDLWGQGTLVTVSS
VL: DIQMTQSPSTLSASVGDRVTITCQASQSIGRWLSWYQQKPGKAPKLLIYQASKLASGVPSRFSGSGSGTEFTLTISSLQPDDFATYYCQNNYDIIAYGNAFGGGTKVEIK
notes: also called humanized 9A9 HZD1
For B7, the EC50 (recombinant human PD-L1 [1]) was 0.0159 µg/mL.

B8: h9A9-HZD2 (antibody, V domains shown)
VH: B7 VH with I27F, L29V
VL: B7 VL
notes: also called humanized 9A9 HZD2
In the case of B8, the EC50 (recombinant human PD-L1 [1]) is reported as 0.0126 µg/mL.

B9: h15E9_HZD1 (antibody, V domains shown)
VH: EVQLVESGGGLVQPGGSLRLSCAASGFDISNYWMSWVRQAPGKGLEWVGIISTGGNTWYASWVKGRFTISRDNSKNTLYLQMNSLRAEDTAVYYCARVVIYGGTTSSFNLWGQGTLVTVSS
VL: DIQMTQSPSSLSASVGDRVTITCQSSQNVYNKIRLSWYQQKPGKAPKELIYAASSLASGVPSRFSGSGSGTEFTLTISSLQPEDFATYYCQGGYSGPIYAFGGGTKVEIK
notes: also called humanized 15E9 HZD1
With B9 the EC50 (recombinant human PD-L1 [1]) was 0.267 µg/mL.

B10: h15E9_HZD2 (antibody, V domains shown)
VH: B9 VH
VL: B9 VL with E48R
notes: also called humanized 15E9 HZD2
Binder B10 has an EC50 (recombinant human PD-L1 [1]) of 1.62 µg/mL.

B11: h51D5_HZD1 (antibody, V domains shown)
VH: EVQLVESGGGLVQPGGSLRLSCAASGFSLSSYWMSWVRRAPGKGLEWVGYINGGSGNPYYASWAKGRFTISRDNSKNTLYLQMNSLRAEDTAVYYCARGGESDDYVYGRYGLDPWGQGTLVTVSS
VL: DIQMTQSPSTLSASVGDRVTITCQASQSISSWLSWYQQKPGKAPKLLIYDASKLASGVPSRFSGSGSGTEFTLTISSLQPDDFATYYCQQDYSSYNVDNTFGGGTKVEIK
notes: also called humanized 51D5 HZD1
Work on B11 yielded an EC50 (recombinant human PD-L1 [1]) of 0.0156 µg/mL.

B12: h51D5_HZD2 (antibody, V domains shown)
VH: B11 VH with R39Q
VL: B11 VL
notes: also called humanized 51D5 HZD2
In the case of B12, the EC50 (recombinant human PD-L1 [1]) is reported as 0.0169 µg/mL.
